Test [1] concerns the target T1, PTP1B-OX (Homo sapiens, UniProt P18031).
T1 construct: made in house; host or cells: E. coli BL21 (pET19b)
T1 sequence (P18031 3-277): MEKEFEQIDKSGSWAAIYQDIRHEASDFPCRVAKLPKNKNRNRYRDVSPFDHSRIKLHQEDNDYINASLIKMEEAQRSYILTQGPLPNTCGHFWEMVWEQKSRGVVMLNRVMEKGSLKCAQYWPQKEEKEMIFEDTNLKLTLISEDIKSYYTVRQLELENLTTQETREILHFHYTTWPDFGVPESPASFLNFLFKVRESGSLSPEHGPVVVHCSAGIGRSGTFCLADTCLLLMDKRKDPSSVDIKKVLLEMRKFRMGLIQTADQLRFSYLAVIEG
The experiment in a line: In vitro binding assay, purified recombinant PTP1B (37 kDa) and purified scFv, Ni-NTA pull down. As to conditions: purified proteins, scFv in molar excess, 2 hours at 4° C.; FIG. 9. How it is done:
(§1) They established conditions in which PTP1B is reversibly oxidized by H2O2 in solution (FIG. 8). An artificial protein substrate RCML, in which tyrosine was phosphorylated with ^32P using recombinant GST-FER kinase was used in this assay to measure the phosphatase activity. Recombinant PTP (37 kDa) was incubated with increasing concentration (50 μM to 100 mM) of H2O2. A quick buffer exchange was done to remove the H2O2 and reducing agent (TCEP) was added to reactivate the enzyme.
(§2) In the in vitro binding assay, purified PTP was reversibly oxidized with […] followed by a quick buffer exchange to remove H2O2 (FIG. 8). Purified scFv was incubated in molar excess with PTP1B-OX or with PTP under reducing condition (with 2 mM TCEP) in binding buffer (20 mM HEPES, pH 7.4, 300 mM NaCl, 0.05% BSA, 0.05% Tween-20 and 10 mM imidazole) for 2 hours at 4° C. Ni-NTA agarose was added and incubated for one hour at 4° C. Protein complex bound to Ni-NTA agarose beads was pulled down and washed (three times, 5 minutes each, at 4° C.) with binding buffer containing 20 mM imidazole to reduce non-specific binding to the beads. The protein complex was eluted from the Ni-NTA agarose beads with 500 mM imidazole (in binding buffer, pH 7.4) for 15 minutes at 4° C. with gentle shaking. The complex was separated by SDS-PAGE and PTP1B was detected with anti-PTP1B antibody (FG6) and scFv was detected with anti-HA antibody [anti-HA (3F10)-HRP, Roche] by immunoblotting. Eight different scFvs (scFvs 20, 21, 24, 28, 45, 48, 57, and 105), expressed and purified from bacterial cultures were tested by this in vitro binding experiment.

Test [2] addresses T2, PTP1B under reducing condition (Homo sapiens, UniProt P18031).
T2 construct: made in house; host or cells: E. coli BL21 (pET19b)
T2 sequence (P18031 3-277 limits assumed): T1 sequence (P18031 3-277)
The experiment in a line: In vitro binding assay, purified recombinant PTP1B (37 kDa) and purified scFv, Ni-NTA pull down, reducing condition. As to conditions: with 2 mM TCEP; FIG. 9. How it is done: as §1, §2

The target of test [3] is T1, PTP1B-OX. Nature of the test: Inhibition of reactivation of reversibly oxidized PTP1B by reducing agent (RCML phosphatase assay). In kind it is biochemical. As to conditions: PTP1B oxidized with H2O2, buffer exchange, TCEP added; FIG. 2. On the procedure: (§3) Applicant's hypothesis was that scFvs that are able to bind to and stabilize the oxidized conformation of PTP1B in solution would inhibit reactivation by reducing agent, but have no direct inhibitory effect on phosphatase activity in assays in vitro. Activity was measured using ^32P-labeled pTyr-Reduced Carboxamidomethylated and Maleylated Lysozyme as substrate. Applicant established conditions in which wild type PTP1B could be reversibly oxidized in vitro. PTP1B was inactivated following addition of H2O2. […] Applicant validated this approach further, by testing the effects of expressing one of the scFvs (scFv45) as a single chain antibody fragment “intrabody” to PTP1B, using 293T cells as the expression system. This intrabody was expressed transiently and then tested for effects on insulin signaling, focusing initially on the tyrosine phosphorylation status of the beta-subunit of the insulin receptor and insulin receptor substrate (IRS-1).
(§4) Reduced carboxamidomethylated and maleylated lysozyme (RCML) was labeled with ^32P using recombinant GST-FER kinase to stoichiometries up to 0.8 (mol ^32P incorporated/mol of protein). This ^32P-Labeled phospho-tyrosyl RCML was used as the substrate in the in-solution phosphatase assay for screening the conformation sensor scFvs. Recombinant PTP1B was reversibly oxidized and transiently inactivated with H2O2 (5× molar excess of the protein). […] Purified bacterially expressed scFvs (100× molar excess of PTP1B) were incubated with PTP after H2O2 treatment and its removal and the effect of individual scFv on stabilizing the reversibly oxidized conformation was assessed by the phosphatase assay under reducing condition.
In a different experiment, conditions were established in which wild type PTP1B could be reversibly oxidized in vitro. […] Addition of the reducing agent alone had no substantial effect on PTP1B activity (FIGS. 1 and 2, “PTP1B”).

A further test concerns the target T3, PTP1B (reduced, active) (Homo sapiens, UniProt P18031).
T3 construct: made in house; host or cells: E. coli BL21 (pET19b)
T3 sequence (P18031 3-277 limits assumed): T1 sequence (P18031 3-277)
Nature of the test: Direct effect of scFvs/antibodies on PTP1B phosphatase activity (32P-pTyr-RCML substrate). In kind it is biochemical. As to conditions: 32P-labeled pTyr-RCML substrate, FIG. 1. On the procedure:
as §3, §4
In order to screen the isolated scFvs for those that inhibit reactivation of PTP1B-OX by reducing agent, but have no direct inhibitory effect on phosphatase activity in assays in vitro, the effect of six scFvs (scFv20, scFv34, scFv45, scFv57, scFv64 and scFv106) on PTP1B activity was determined. PTP1B activity was measured using 32P-labeled pTyr-Reduced Carboxamidomethylated and Maleylated Lysozyme as substrate (FIGS. 1 and 2). Addition of the reducing agent TCEP alone had no substantial effect in PTP1B activity was assessed.

B1: scFv57: scFv binding PTP1B-OX, SEQ ID NO: 27 and 90 (protein)
scFv: MKKTAIAIAVALAGFATVAQAALTQPSSVSANPGAFNKITCSGSSSAYGYGWNQQKSPGSAPVTVIYNNNKRPSNIPSRFSGSKSGSTGTLTITGDQDEDEDFYFCGSEYSSTDAIFGAGTTLTVLGQSSRSSTVTLDESGGGLQAPGGALSLVCKASGFTFSSYDMGWIPQAPGKGLEYVAGITDNGIYASYGSAVDGRATISRDNRQSSVKLQLNNLKADDTGTYYCARDDGSGWTGNSIDAWGHGTEVIVSSTSGQAGQHHHHHHGAYPYDVPDYAS
Consider B1, for which the “binding to PTP1B-OX in vitro” value with PTP1B-OX [1] is given as “specific binding to PTP1B-OX”. Moreover, the “binding to PTP1B under reducing condition in vitro” value in test [2] was “not to PTP under reducing condition”. For the same molecule, in the test with PTP1B-OX [3], the “inhibition of reactivation of PTP1B-OX by reducing agent (restoration of PTP1B activity after reversible oxidation)” value was “substantial inhibition of the restoration of PTP1B activity”. Moreover, the “direct effect on PTP1B activity” value with PTP1B (reduced, active) is listed as “no direct inhibition of PTP activity”.

B2: scFv45: conformation-sensor scFv binding PTP1B-OX, SEQ ID NO: 26 and 78; expressed as intrabody (protein)
scFv: MKKTAIAIAVALAGFATVAQAALTQPSSVSANPGGTVKITCSGSSSAYGYGWYQQKSPGSAPVTVIYNNNKRPSNIPSRFSGSKSGSTGTLTITGVQAEDEAVYFCGSEDSSTDAIFGAGTTLTVLGQSSRSSTVTLDESGGGLQAPGGALSLVCKASGFTFSSYDMGWIRQAPGKGLEYVAGITDNGRYASYGSAVDGRATISRDNGQSSVRLQLNNLRAEDTGTYYCARDDGSGWTGNSIDAWGHGTEVIVSSTSGQAGQHHHHHHGAYPYDVPDYAS
B2: in the test with PTP1B-OX [1], the “binding to PTP1B-OX in vitro” value is reported as “specific binding to PTP1B-OX”. Further, the “binding to PTP1B under reducing condition in vitro” value in test [2] is listed as “not to PTP under reducing condition”. The “inhibition of reactivation of PTP1B-OX by reducing agent (restoration of PTP1B activity after reversible oxidation)” value with PTP1B-OX [3] is “substantial inhibition of the restoration of PTP1B activity”. Moreover, in the test with PTP1B (reduced, active), the “direct effect on PTP1B activity” value is “no direct inhibition of PTP activity”.

Values taken from patent US9074002B2, “PTP1B inhibitors” (Cold Spring Harbor Laboratory, priority 2009, dated 2015).
